# Results taken from the nanobody polyreactivity screen of Harvey et al. (2022).
# Assay: yeast display, Sf9 membrane polyspecificity reagent, FACS + sequencing; frameworks hold sequencing errors
# How it was run: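 A nanobody's polyreactivity label depends on the gate it was sorted from. Yeast display cells were stained with 10% biotinylated, detergent-solubilized Sf9 membrane reagent for 1 hour at 4 °C, enriched on streptavidin microbeads and sorted by FACS. The low and high (top ~1%) gates were set on anti-HA fluorescence for expression and streptavidin fluorescence for reagent binding.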
row,Sequence,polyreactivity (PSR sort gate)
1,QVQLVESGGGLVQAGVSLRLSCAASGLIFWAYAMGWYRQAPGKERELVAAINSGGRTYYADSVKGRFTISRDNAKNTVYLQMNSLKPEDTAVYYCAAAGVYSSDYWGQCTQVTVSS,low polyreactivity
2,QVQLVESGGGLVQAGVSLRLSCAASGNTFGLYAMGWYRQAPGKEREFVADITTDGGTTYYADSVKGRFTISRDNAKNTVYLQMNSLKPEDTAVYYCAKLGTFGQHQYDYWGQGTQVTVSS,low polyreactivity
3,QVQLVESGGGLVQAGVSLRLSCAASGRIFIVYAMGWYRQAPGKERELVAAISWRGGNTYYADSVKARFTISRDNAKNTVYLQMNSLKPEDTAVYYCAARQYGTAAFDYWGQGTQVTVSS,high polyreactivity
4,QVQLVESGGGLVQAGVSLRLSCAASGRIFPSYAMGWYRQAPGKEREMVAAITSSDSTYYADSVKGRFTISRDNAKNTVYLQMNSLKPDDTAVYYCAAAYSYSGWWWFGYWGQGTQVTVSS,high polyreactivity
5,QVQLVESGGGLVQAGVSLRLSCAASGSIFDVYAMGWYRQAPGKERELVATISYGDSSTYYADSVKGRFTISRDNAKNTVYLQMNSLKPEDTAVYYCAADYLTAPRWRQWGEMDYWGQGTQVTVSS,low polyreactivity
6,QVQLVESGGGLVQAGVSLRLSCAASGSIFRYYAMGWYRQAPGKERELVAAITVGGSTYYADSVKGRFTISRDNAKNTVYLQMNSLKPEDTAVYYCAADGDKRTKGYDYWGQGTQVTVSS,high polyreactivity
7,QVQLVESGGGLVQAGVSLRLSCAASGSIFSKYVMGWYRQAPGKERELVAAISWSGTRTYYADSVKGRFTISRDYAKNSVYLQMNSLKPEDTAVYYCAKYIFTTGLGYWGQGTQVTVSS,high polyreactivity
8,QVQLVESGGGLVQAGVSLRLSCAASGSIFSYNAMGWYRQAPGKERELVAAINNGGSTYYADSVKGRFTISRDNAKNTVYLQMNSLKPEDTAVYYCAAQSGHYAEYNYWGQGTQVTVSS,high polyreactivity
9,QVQLVESGGGLVQAGVSLRLSCAASGSSLARNAMGWYRQAPGKERELVAAISRRSGSTYYADSVKGRFTFSRDNAKNTVYLQMNSLKPEDTAVYYCAKLGIVHQYDYWGQGTQVTVSS,low polyreactivity
10,QVQLVESGGGLVQAGVSLRLSCAASGSTFTTNVMGWYIQAPGKERELVAAISWSSGSTYYADSVKGRFTISRDNAKNTVYLQMNSLKPEDTAVYYCAARLVIFYPYSRYYYWGQGTQVTVSS,high polyreactivity
11,QVQLVESGGGLVQAGVSLRLSCAASGTFYSNAMGWYRQAPGKERELVAAINTSGSTNYADSVKGRFTISRDNAKNTVYLQMNSLKPEDTAVYYCAAGIVVTGYDYWGQGTQVTVSS,low polyreactivity
12,QVQLVESGGGLVQAGVSLRLSCAASGTTFGLNPMGWYRQAPGKERELVAAISTSGGSTYYADSVKGRFTISRDNAKNSVYLQMISLKPEDTAVYYCAAEVDAGYDYSQYYYWGQGTQVTVSS,low polyreactivity
13,QVQLVESGGGLVQAGVSLRLSCAATGFPLQVYDMGWYRQAPGKEMELVADISGSGDSTNYADSVKGRFTISRDNAKNSVYLQMNSLKPEDTAVYYCAAEVRGGYYGYDYWGQGTQVTVSS,low polyreactivity
14,QVQLVESGGGLVQAGVSLRLSCAPSGRTFIYYAMGWYRQAPGKERELVATINGITGSTYYADSVKGRFTNSRDNAKNTVYLQMNSLKPEDTAVYYCAKVPRKYRAWMDYWGQGTQVTVSS,high polyreactivity
15,QVQLVESGGGLVQAGVSLRLSCASSGYTYHVYAMGWYRQAPGKERELVAAISTGDDTTFYADSVKVRFTISRDNAKNTVYLQMNSLKPEDTAVYYCAAAYGTPYGGYDYWGQGTQVTVSS,low polyreactivity
16,QVQLVESGGGLVQAGVSLRLSSAASGIIFAYYTMGWYRQAPGKERELVAAISWSGGSTYYADSVKGRFTISRDNAKNTVYLQMNSLKPEDTAVYYCAVVSRRTRLPYYYWGQGTQVTVSS,high polyreactivity
17,QVQLVESGGGLVQARGRLRLSCSASGRTFYGYAMGWYRQATGKERELVASISWSTGSTHYADSVKGRFTISRDNAKNTVYLQMNSLKPEDTAVYYCAAPFWRDSYVQIDYDFWGQGTQVTVSS,low polyreactivity
